# Measured values published in patent publication US20210388087A1 (Chugai, published 2021).
# Residue numbers refer to the chain shown, from its start. Numbers in names are those of the source.
# B1: H183/L072 VH A60D (antibody, name in Kabat numbering, V domains shown)
# VH: QVQLVESGGGLVQPGRSLRLSCAASGFTFSNAWMHWVRQAPGKGLEWVAQIKDKGNAYAAYYDPSVKGRFTISRDDSKNSIYLQMNSLKTEDTAVYYCHYVHYASASTVLPAFGVDAWGQGTTVTVSS
# VL: DIVMTQSPLSLPVTPGEPASISCQASQELVHMNRNTYLHWYQQKPGQAPRLLIYKVSNRFPGVPDRFSGSGSGTDFTLKISRVEAEDVGVYYCAQGTSVPFTFGQGTKLEIK
# B2: H183/L072 VH A60E (antibody, name in Kabat numbering, V domains shown)
# VH: B1 VH with D63E
# VL: B1 VL
# B3: H183/L072 VH A98P (antibody, name in Kabat numbering, V domains shown)
# VH: B1 VH with D63A, A104P
# VL: B1 VL
# B4: H183/L072 VH A60M (antibody, name in Kabat numbering, V domains shown)
# VH: B1 VH with D63M
# VL: B1 VL
# B5: H183/L072 VH A102P (antibody, name in Kabat numbering, V domains shown)
# VH: B1 VH with D63A, A117P
# VL: B1 VL
# B6: H183/L072 VH A60L (antibody, name in Kabat numbering, V domains shown)
# VH: B1 VH with D63L
# VL: B1 VL
# B7: H183/L072 VH D52aA (antibody, name in Kabat numbering, V domains shown)
# VH: B1 VH with D53A, D63A
# VL: B1 VL
# B8: H183/L072 VH D52aF (antibody, name in Kabat numbering, V domains shown)
# VH: B1 VH with D53F, D63A
# VL: B1 VL
# B9: H183/L072 VH A100I (antibody, name in Kabat numbering, V domains shown)
# VH: B1 VH with D63A, A106I
# VL: B1 VL
# B10: H183/L072 VH A60K (antibody, name in Kabat numbering, V domains shown)
# VH: B1 VH with D63K
# VL: B1 VL
# B11: H183/L072 VH A100fI (antibody, name in Kabat numbering, V domains shown)
# VH: B1 VH with D63A, A112I
# VL: B1 VL
# B12: H183/L072 VH A102M (antibody, name in Kabat numbering, V domains shown)
# VH: B1 VH with D63A, A117M
# VL: B1 VL
# B13: H183/L072 VH A60W (antibody, name in Kabat numbering, V domains shown)
# VH: B1 VH with D63W
# VL: B1 VL
# B14: H183/L072 VH D52aK (antibody, name in Kabat numbering, V domains shown)
# VH: B1 VH with D53K, D63A
# VL: B1 VL
# B15: H183/L072 VH A60P (antibody, name in Kabat numbering, V domains shown)
# VH: B1 VH with D63P
# VL: B1 VL
# B16: H183/L072 VH A98L (antibody, name in Kabat numbering, V domains shown)
# VH: B1 VH with D63A, A104L
# VL: B1 VL
# B17: H183/L072 VH A60T (antibody, name in Kabat numbering, V domains shown)
# VH: B1 VH with D63T
# VL: B1 VL
# B18: H183/L072 VH A100fL (antibody, name in Kabat numbering, V domains shown)
# VH: B1 VH with D63A, A112L
# VL: B1 VL
# B19: H183/L072 VH A60F (antibody, name in Kabat numbering, V domains shown)
# VH: B1 VH with D63F
# VL: B1 VL
# B20: H183/L072 VH D52aH (antibody, name in Kabat numbering, V domains shown)
# VH: B1 VH with D53H, D63A
# VL: B1 VL
# B21: H183/L072 VH A60V (antibody, name in Kabat numbering, V domains shown)
# VH: B1 VH with D63V
# VL: B1 VL
# B22: H183/L072 VH A60H (antibody, name in Kabat numbering, V domains shown)
# VH: B1 VH with D63H
# VL: B1 VL
# B23: H183/L072 VH A98I (antibody, name in Kabat numbering, V domains shown)
# VH: B1 VH with D63A, A104I
# VL: B1 VL
# B24: H183/L072 VH A60R (antibody, name in Kabat numbering, V domains shown)
# VH: B1 VH with D63R
# VL: B1 VL
# B25: H183/L072 VH A102L (antibody, name in Kabat numbering, V domains shown)
# VH: B1 VH with D63A, A117L
# VL: B1 VL
# B26: H183/L072 VH A100P (antibody, name in Kabat numbering, V domains shown)
# VH: B1 VH with D63A, A106P
# VL: B1 VL
# B27: H183/L072 VH A60S (antibody, name in Kabat numbering, V domains shown)
# VH: B1 VH with D63S
# VL: B1 VL
# B28: H183/L072 VH A60N (antibody, name in Kabat numbering, V domains shown)
# VH: B1 VH with D63N
# VL: B1 VL
# B29: H183/L072 VH A98M (antibody, name in Kabat numbering, V domains shown)
# VH: B1 VH with D63A, A104M
# VL: B1 VL
# B30: H183/L072 VH D52aG (antibody, name in Kabat numbering, V domains shown)
# VH: B1 VH with D53G, D63A
# VL: B1 VL
# B31: H183/L072 VH A100L (antibody, name in Kabat numbering, V domains shown)
# VH: B1 VH with D63A, A106L
# VL: B1 VL
# B32: H183/L072 VH A60G (antibody, name in Kabat numbering, V domains shown)
# VH: B1 VH with D63G
# VL: B1 VL
# B33: H183/L072 VH D52aL (antibody, name in Kabat numbering, V domains shown)
# VH: B1 VH with D53L, D63A
# VL: B1 VL
# B34: H183/L072 VH A100fP (antibody, name in Kabat numbering, V domains shown)
# VH: B1 VH with D63A, A112P
# VL: B1 VL
# B35: H183/L072 VH A60Y (antibody, name in Kabat numbering, V domains shown)
# VH: B1 VH with D63Y
# VL: B1 VL
# B36: H183/L072 VH A60I (antibody, name in Kabat numbering, V domains shown)
# VH: B1 VH with D63I
# VL: B1 VL
# B37: H183/L072 VH A100M (antibody, name in Kabat numbering, V domains shown)
# VH: B1 VH with D63A, A106M
# VL: B1 VL
# B38: H183/L072 VH D52aE (antibody, name in Kabat numbering, V domains shown)
# VH: B1 VH with D53E, D63A
# VL: B1 VL
# B39: H183/L072 VH A102I (antibody, name in Kabat numbering, V domains shown)
# VH: B1 VH with D63A, A117I
# VL: B1 VL
# B40: H183/L072 VH A100fM (antibody, name in Kabat numbering, V domains shown)
# VH: B1 VH with D63A, A112M
# VL: B1 VL
# B41: H183/L072 VH D52aI (antibody, name in Kabat numbering, V domains shown)
# VH: B1 VH with D53I, D63A
# VL: B1 VL
# B42: H183/L072 VH A60Q (antibody, name in Kabat numbering, V domains shown)
# VH: B1 VH with D63Q
# VL: B1 VL
# Biological target: T1, Human CD3eg linker (human)
# T1 construct: Single chain: epsilon and gamma subunits of human CD3 joined by a 29-mer linker, Flag-tag at the C-terminus; also called recombinant human CD3
# T1 chain: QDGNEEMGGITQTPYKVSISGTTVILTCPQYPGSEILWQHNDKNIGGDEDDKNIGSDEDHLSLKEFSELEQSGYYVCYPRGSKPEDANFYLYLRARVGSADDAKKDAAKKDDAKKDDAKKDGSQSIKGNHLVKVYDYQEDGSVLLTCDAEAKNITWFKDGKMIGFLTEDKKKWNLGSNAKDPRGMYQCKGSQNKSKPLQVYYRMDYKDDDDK
# Test: Biacore SPR, vs template H183/L072
row,Binder,fold change of affinity
1,B1,1.3 fold
2,B2,1.1 fold
3,B3,0.2 fold
4,B4,1 fold
5,B5,0 fold
6,B6,1.2 fold
7,B7,0 fold
8,B8,0 fold
9,B9,1.4 fold
10,B10,0.9 fold
11,B11,1 fold
12,B12,1 fold
13,B13,1 fold
14,B14,0 fold
15,B15,0.5 fold
16,B16,3.7 fold
17,B17,0.9 fold
18,B18,1.2 fold
19,B19,0.7 fold
20,B20,0.3 fold
21,B21,1 fold

row,Binder,fold change of affinity
1,B22,1.1 fold
2,B23,4.6 fold
3,B24,1 fold
4,B25,0.7 fold
5,B26,1.3 fold
6,B27,1.3 fold
7,B28,1 fold
8,B29,1 fold
9,B30,0.2 fold
10,B31,1.2 fold
11,B32,1.9 fold
12,B33,0 fold
13,B34,0.6 fold
14,B35,0.7 fold
15,B36,0.6 fold
16,B37,1 fold
17,B38,0 fold
18,B39,0.9 fold
19,B40,1.3 fold
20,B41,0 fold
21,B42,1.1 fold
